Target: T1, pancreatic lipase (Homo sapiens, UniProt P16233)
T1 sequence (P16233 17-465): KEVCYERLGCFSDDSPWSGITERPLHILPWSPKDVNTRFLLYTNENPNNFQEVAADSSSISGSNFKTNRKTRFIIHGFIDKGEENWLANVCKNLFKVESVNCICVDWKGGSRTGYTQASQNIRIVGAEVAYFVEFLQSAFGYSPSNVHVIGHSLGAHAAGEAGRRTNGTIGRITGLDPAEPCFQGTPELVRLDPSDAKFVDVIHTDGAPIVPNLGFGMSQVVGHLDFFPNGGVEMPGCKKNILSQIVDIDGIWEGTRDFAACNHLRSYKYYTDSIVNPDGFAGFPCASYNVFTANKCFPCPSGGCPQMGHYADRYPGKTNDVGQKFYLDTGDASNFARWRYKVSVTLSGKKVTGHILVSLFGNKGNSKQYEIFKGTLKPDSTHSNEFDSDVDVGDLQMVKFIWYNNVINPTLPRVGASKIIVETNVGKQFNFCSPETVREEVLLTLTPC
Test: Measurement of the lipase activity (pH stat, tributyrin)
Type: biochemical
Settings: increasing amounts of membranes/proteins, lipase + colipase, pH 7.0, curves only in FIG. 1-3
Description: The lipase activity was measured according to the following (Borgstrom B. and Erlanson C. European J. of Biochemistry 37: 60-68, 1973): 15 ml of an aqueous solution containing 1 mM Tris buffer pH 7.0, 1 mM calcium chloride, 150 mM sodium chloride, 4 mM sodiumtaurodeoxycholate, 0.5 μg lipase, 1 μg of colipase.
To this mixture 0.5 ml of tributyrin is added together with increasing amounts of membranes and the released fatty acids measured using a pH stat.

inhibition of pancreatic lipase: inhibition
Substance: transhydrogenase: isolated membrane protein, transhydrogenase prepared from E. coli
